Changes are numbered by the printed parent chain. Numbers in names are those of the source. Blank lines part the entries; values can stand above or below the binder they belong to. Where no end group is shown, it is not given here.
How the values were obtained:
Settings in all cases: both partners purified
[1] = target: T1, Tks4 PX–SH3_(2) fragment (residues 1–279) (human, UniProt A1X283 1-279); experiment: MST; NT-647-labelled PRR–SH3_(3) constant at 20 nM, titrated with PX–SH3_(2) (16-step 1:2 dilutions from 40 µM); PBS, 0.5 mM TCEP, 0.05% TWEEN 20; room temperature; 1:1 Kd fit
T1 construct: human Tks4 (SH3PXD2B), residues 1-279: PX, SH3_(1) and SH3_(2) domains; The modified pET vector has a TEV site after the His-tag; source: E. coli Rosetta pLysS, purified
T1 sequence (looked up): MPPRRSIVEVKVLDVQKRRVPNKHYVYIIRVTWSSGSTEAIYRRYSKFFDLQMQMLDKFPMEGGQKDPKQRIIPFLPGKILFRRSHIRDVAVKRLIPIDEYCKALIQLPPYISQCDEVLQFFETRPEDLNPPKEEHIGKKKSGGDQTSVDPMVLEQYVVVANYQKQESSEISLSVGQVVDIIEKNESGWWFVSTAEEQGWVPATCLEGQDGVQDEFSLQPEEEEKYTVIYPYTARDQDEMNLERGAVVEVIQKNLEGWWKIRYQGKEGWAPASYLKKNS

[2] = target: T1, Tks4 PX–SH3_(2) fragment (residues …); experiment: ITC; PX–SH3_(2) 20 µM in the cell, PRR–SH3_(3) 250 µM in the syringe; 25 °C; PBS with 0.5 mM TCEP; one set of independent binding sites model
[3] = target: T2, Tks4 PX–SH3_(1) fragment (residues 1–210) (human, UniProt A1X283 1-210); experiment: MST; NT-647-labelled SH3_(3) constant at 20 nM, titrated with PX–SH3_(1) (16-step 2:3 dilutions from 412 µM) or, as a control, with SH3_(1); PBS, 0.5 mM TCEP, 0.05% TWEEN 20; room temperature
T2 construct: human Tks4 (SH3PXD2B), residues 1-210: PX and SH3_(1) domains; The vector has a TEV site after the His-tag; source: E. coli Rosetta pLysS, purified
T2 sequence (looked up): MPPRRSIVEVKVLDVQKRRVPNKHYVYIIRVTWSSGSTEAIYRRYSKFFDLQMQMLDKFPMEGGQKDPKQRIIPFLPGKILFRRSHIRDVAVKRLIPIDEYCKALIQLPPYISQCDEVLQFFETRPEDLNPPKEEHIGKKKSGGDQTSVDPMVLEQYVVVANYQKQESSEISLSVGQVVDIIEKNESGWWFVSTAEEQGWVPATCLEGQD

[4] = target: T3, Tks4 SH3_(1)–SH3_(2) tandem SH3 fragment (residues 155–279) (human, UniProt A1X283 155-279, NT-647 amine-reactive dye (in the MST only)); experiment: other fluorescence titration; intrinsic tryptophan fluorescence (excitation 295 nm, followed at 340 nm); SH3_(1)–SH3_(2) constant at 5 µM, PRR fragments 1.8–100 µM; PBS, 0.5 mM TCEP, 0.05% TWEEN 20; 1:1 binding model
T3 construct: human Tks4 (SH3PXD2B), residues 155-279: first and second SH3 domains with their linker; The vector has a TEV site after the His-tag; Unlabelled in the tryptophan fluorescence titrations; source: E. coli Rosetta pLysS, purified
T3 sequence (looked up): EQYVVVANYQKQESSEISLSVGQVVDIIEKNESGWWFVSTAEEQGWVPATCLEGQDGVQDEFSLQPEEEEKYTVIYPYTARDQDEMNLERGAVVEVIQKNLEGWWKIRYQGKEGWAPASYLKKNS

[5] = target: T3, Tks4 SH3_(1)–SH3_(2) tandem SH3 …; experiment: as above; remark: listed apart in the source
[6] = target: T3, Tks4 SH3_(1)–SH3_(2) tandem SH3 …; experiment: MST; NT-647-labelled SH3_(1)–SH3_(2) constant at 20 nM, titrated with PRRL (16-step 2:3 dilutions from 166 µM); PBS, 0.5 mM TCEP, 0.05% TWEEN 20; room temperature; standard Kd fit model

Kd [1]: ~240 nM | Kd [2]: 300 ± 200 nM
B1: Tks4 PRR–SH3_(3) fragment (residues 333–426) (domain or fragment, human, UniProt A1X283 333-426, looked up)
chain: GDAKQRSPKMRQRPPPRRDMTIPRGLNLPKPPIPPQVEEEYYTIAEFQTTIPDGISFQAGLKVEVIEKNLSGWWYIQIEDKEGWAPATFIDKYK
modifications: NT-647 amine-reactive dye (in the MST only)
notes: human Tks4 (SH3PXD2B), residues 333-426: proline-rich region and SH3_(3) domain; The vector has a TEV site after the His-tag; Labelled in the MST, unlabelled in the ITC; source: E. coli Rosetta pLysS, purified

Kd [4]: 10 µM
B5: Tks4 PRRL^T353E phosphomimetic mutant fragment (domain or fragment, human)
chain: GSHMGDAKQRSPKMRQRPPPRRDMEIPRGLNLPKPPIPPQVE
notes: four N-terminal residues that are cloning artifacts; human Tks4 (SH3PXD2B), residues 333-370 with the phosphomimetic Thr-to-Glu mutation T353E; not shown: His-tag, N-terminal, cleaved

The remaining lines, values behind:

B2: Tks4 SH3_(3) domain (residues 371–426) (domain or fragment, human, UniProt A1X283 371-426, looked up)
chain: EEYYTIAEFQTTIPDGISFQAGLKVEVIEKNLSGWWYIQIEDKEGWAPATFIDKYK
modifications: also: NT-647 amine-reactive dye label, site not given here (MST only)
notes: human Tks4 (SH3PXD2B), residues 371-426: third SH3 domain; The vector has a TEV site after the His-tag; also called third SH3 domain; source: E. coli Rosetta pLysS, purified
Kd [3]: > 50 µM

B3: Tks4 PRRS peptide (peptide)
peptide: KMRQRPPPRRDMTIPRG
notes: human Tks4 (SH3PXD2B), truncated version of PRRL containing only the PTAM; source: synthetic peptide (Fmoc/tBu SPPS, RP-HPLC purified)
Kd [4]: 12 µM

B4: Tks4 PRRL fragment (residues 333–370) (domain or fragment, human)
chain: B5 chain with E25T
notes: four N-terminal residues that are cloning artifacts; human Tks4 (SH3PXD2B), residues 333-370: proline-rich region with the PTAM (PPPRR) and the PKPPIPP motif; also called wild type PRRL; not shown: His-tag, N-terminal, cleaved
Kd [4]: 11 µM | Kd [5]: 24 µM | Kd [6]: 15 µM

Reference: PMC8348221, “Characterization of the Intramolecular Interactions and Regulatory Mechanisms of the Scaffold Protein Tks4” (International Journal of Molecular Sciences, 2021)
